Data on 13 molecules can be found in patent publication US11001838B2, “Platform for screening phosphomevalonate decarboxylase” (The Regents of the University of California, priority 2017, dated 2021).

The test system of one data set is DH1. Description: Fosmidomycin sensitivity of E. coli strain DH1. The data set is classed as cell-based. The procedure:
Fosmidomycin sensitivity was tested by introducing various amounts of fosmidomycin into DH1, BW25113 and BL21, three E. coli strains commonly used for microbial metabolic engineering. […] At higher concentrations of fosmidomycin, cell death was accelerated in DH1, supported by a fast reduction in optical density (OD) at 600 nm after approximately two hours of exposure to fosmidomycin. On the other hand, both BL21 and BW25113 continued to grow for approximately four hours when exposed to equivalent fosmidomycin levels. Therefore, DH1 was selected as a host strain to screen PMD mutants for improved MVAP decarboxylation activity and subsequent isopentenol production in this study.

Data set [1] relates to E. coli DH1. In words: Isopentenol production in E. coli via IPP-bypass MVA pathway (GC-FID). It is filed as cell-based, Escherichia coli.
The subject of data set [2] is E. coli DH1. In words: Growth of E. coli DH1 under the screening conditions (MEP pathway blocked by fosmidomycin, IPP-bypass pathway + IPK). Conditions: for growth under fosmidomycin selection pressure: screening platform.
Substrate in data set [3]: C[C@@](O)(CCOP(=O)(O)O)CC(=O)O
In words: purified protein, by the assay type. Conditions: other: MVAP 0.100-4.0 mM, 4 mM ATP, pH 7.5, brackets: standard error.

Substrate in data set [4]: C[C@@](O)(CCOP(=O)(O)O)CC(=O)O
In words: In vitro kinetics of MVAP decarboxylation by PMDsc R74H (coupled assay). Conditions: other: MVAP 0.100-4.0 mM, 4 mM ATP, pH 7.5, brackets: standard error. It is filed as biochemical, Saccharomyces cerevisiae.

Data set [5] has as its system E. coli DH1. Conditions: cited from earlier work.
For data set [6] the following is noted: cited from earlier work; for activity of WT for phosphomevalonate (MVAP): previous study (Kang 2015).
Substrate in data set [7]: C[C@@](O)(CCOP(=O)(O)O)CC(=O)O
Description: In vitro kinetics of MVAP decarboxylation by PMDsc I145A (coupled assay). The data set is classed as biochemical, Saccharomyces cerevisiae. Conditions: other: MVAP 0.100-4.0 mM, 4 mM ATP, pH 7.5, brackets: standard error.

Substrate in data set [8]: C[C@@](O)(CCOP(=O)(O)O)CC(=O)O
In words: In vitro kinetics of MVAP decarboxylation by PMDsc Y19H (coupled assay). The data set is classed as biochemical, Saccharomyces cerevisiae. Conditions: other: MVAP 0.100-4.0 mM, 4 mM ATP, pH 7.5, brackets: standard error.

Substrate in data set [9]: C[C@@](O)(CCOP(=O)(O)O)CC(=O)O
In words: In vitro kinetics of MVAP decarboxylation by PMDsc S186C (coupled assay). It is filed as biochemical, Saccharomyces cerevisiae. Conditions: other: MVAP 0.100-4.0 mM, 4 mM ATP, pH 7.5, brackets: standard error.

Substrate in data set [10]: C[C@@](O)(CCOP(=O)(O)O)CC(=O)O
In words: In vitro kinetics of MVAP decarboxylation by PMDsc K22Y (coupled assay). Conditions: other: MVAP 0.100-4.0 mM, 4 mM ATP, pH 7.5, brackets: standard error. The data set is classed as biochemical, Saccharomyces cerevisiae.

Substrate in data set [11]: C[C@@](O)(CCOP(=O)(O)O)CC(=O)O
Description: In vitro kinetics of MVAP decarboxylation by PMDsc M212Q (coupled assay). It is filed as biochemical, Saccharomyces cerevisiae. Conditions: other: MVAP 0.100-4.0 mM, 4 mM ATP, pH 7.5, brackets: standard error.

Substrate in data set [12]: C[C@@](O)(CCOP(=O)(O)O)CC(=O)O
In words: In vitro kinetics of MVAP decarboxylation by PMDsc R147K (coupled assay). It is filed as biochemical, Saccharomyces cerevisiae. Conditions: other: MVAP 0.100-4.0 mM, 4 mM ATP, pH 7.5, brackets: standard error.

Where [13] appears, read: 10-fold higher inducer concentration (100 nM aTc).
The mark [14] stands for this setting: Table 2, screening conditions, standard deviation in brackets.
Setting [15] is: compared with wild type or library mutants.

Residue numbers refer to the chain shown, from its start. In names and notes the source's numbering stands. Several values for one entry are separate records, joined by “and”; a condition that tells them apart may be missing. Identical values can stand only once. Like-named read-outs stand apart in the source and are kept apart here.

For the molecule `O=CN(O)CCCP(=O)(O)O` [fosmidomycin], the growth on fosmidomycin result with DH1 (10 μM fosmidomycin) is reported as “no growth”. The “exposure time until fast reduction in OD at 600 nm” value in the data set with DH1 (higher concentrations of fosmidomycin) was “approximately two”.

B1: Saccharomyces cerevisiae diphosphomevalonate decarboxylase (PMDsc), wild type, SEQ ID NO: 1 (Saccharomyces cerevisiae S288C) (protein)
chain: MTVYTASVTAPVNIATLKYWGKRDTKLNLPTNSSISVTLSQDDLRTLTSAATAPEFERDTLWLNGEPHSIDNERTQNCLRDLRQLRKEMESKDASLPTLSQWKLHIVSENNFPTAAGLASSAAGFAALVSAIAKLYQLPQSTSEISRIARKGSGSACRSLFGGYVAWEMGKAEDGHDSMAVQIADSSDWPQMKACVLVVSDIKKDVSSTQGMQLTVATSELFKERIEHVVPKRFEVMRKAIVEKDFATFAKETMMDSNSFHATCLDSFPPIFYMNDTSKRIISWCHTINQFYGETIVAYTFDAGPNAVLYYLAENESKLFAFIYKLFGSVPGWDKKFTTEQLEAFNHQFESSNFTARELDLELQKDVARVILTQVGSGPQETNESLIDAKTGLPKE
Consider B1, for which the “48 hr Titer (isopentenol)” value in the data set with E. coli DH1 [1] is 475 (40) mg/L and 475 mg/L. In addition, the isopentenol titer is reported as 475.1 mg/L in the data set on E. coli DH1 [1] (text and figure legends, 48 hours after induction); 475 mg/L with E. coli DH1 [1] (text and figure legends, 48 hours after induction, listed as wild type). Also, the Growth rate was 0.83±0.01 hr^1 in the data set on E. coli DH1 [2] (setting [13]), 0.39 (0.02) hr^−1 in the data set on E. coli DH1 [2] (setting [14]), 0.39 h⁻¹ in the data set on E. coli DH1 [2] (Table 3) and 0.4 h⁻¹ with E. coli DH1 [2] (screening conditions). Besides, the “growth rate (reference line FIG. 6)” value in the data set with E. coli DH1 [2] (FIG. 6 legend) is 0.4. Moreover, the Km in data set [3] was determined as 2.3 ± 0.2 mM. Moreover, in data set [3], the kcat was 0.15 (0.01) sec^−1. Besides, the kcat/Km in data set [3] is recorded as 0.066 (0.007) mM^−1 sec^−1.

B2: Saccharomyces cerevisiae diphosphomevalonate decarboxylase (PMDsc, SEQ ID NO: 1) variant R74H (Saccharomyces cerevisiae S288C; R74H) (protein)
chain: B1 chain with R74H
notes: His tag; made in house; host or cells: E. coli Rosetta (DE3)
Regarding B2, in the data set on E. coli DH1 [1], the “48 hr Titer (isopentenol)” value is listed as 770 (263) mg/L. Moreover, in [4], the Km was 0.75 (0.05) mM, the kcat is 0.33 (0.03) sec^−1 and the kcat/Km is given as 0.44 (0.05) mM^−1 sec^−1. The “competitive growth of mixed culture (WT, K22M, R74H)” value in the data set on E. coli DH1 [2] (10 μM fosmidomycin, several dilutions, sequencing) was “dominant strain”. The Growth rate with E. coli DH1 [2] (setting [13]) turned out to be 0.83±0.01 hr^1. Also, the Growth rate in the data set with E. coli DH1 [2] (setting [14]) is 0.68 (0.04) hr^−1. Besides, the Growth rate with E. coli DH1 [2] (screening conditions) was found to be 0.68 ± 0.04 h⁻¹. Moreover, the “growth under fosmidomycin selection pressure” value with E. coli DH1 [2] is “grew faster than the strain with WT PMDsc”. In addition, the isopentenol titer in the data set on E. coli DH1 [5] (from a previous study (Kang et al., 2016)) is listed as 770.3 mg/L. Moreover, the “activity of WT for phosphomevalonate (MVAP)” value (“activity of WT” below) in [6] was 220%.

B3: Saccharomyces cerevisiae diphosphomevalonate decarboxylase (PMDsc, SEQ ID NO: 1) variant I145A (Saccharomyces cerevisiae S288C; I145A) (protein)
chain: B1 chain with I145A
notes: as for B2
For the molecule B3, in the data set on E. coli DH1 [1], the “48 hr Titer (isopentenol)” value is reported as 623 (140) mg/L. For the same molecule, in data set [7], the Km is listed as 2 (1) mM, the kcat was 0.029 (0.004) sec^−1 and the kcat/Km is reported as 0.01 (0.01) mM^−1 sec^−1. The Growth rate in the data set on E. coli DH1 [2] (setting [14]) is listed as 0.17 (0.00) hr^−1.

B4: Saccharomyces cerevisiae diphosphomevalonate decarboxylase (PMDsc, SEQ ID NO: 1) variant Y19H (Saccharomyces cerevisiae S288C; Y19H) (protein)
chain: B1 chain with Y19H
notes: as for B2
In the case of B4, the “48 hr Titer (isopentenol)” value with E. coli DH1 [1] is 388 (9) mg/L. Moreover, the “isopentenol titer” value in the data set on E. coli DH1 [1] (setting [15]) is reported as “significantly decreased isopentenol titers”. Further, the Growth rate with E. coli DH1 [2] (setting [14]) is on record as 0.22 (0.01) hr^−1. Also, in [8], the Km was 0.35 (0.02) mM, the kcat is listed as 0.27 (0.01) sec^−1 and the kcat/Km is given as 0.78 (0.06) mM^−1 sec^−1.

B5: T209D (protein)
chain: B1 chain with T209D
For B5, in the data set on E. coli DH1 [5] (Kang et al., 2016), the “isopentenol titer in E. coli” value is “did not significantly change the isopentenol titer”.

B6: Saccharomyces cerevisiae diphosphomevalonate decarboxylase (PMDsc, SEQ ID NO: 1) variant S186C (Saccharomyces cerevisiae S288C; S186C) (protein)
chain: B1 chain with S186C
notes: as for B2
Turning to B6, the “48 hr Titer (isopentenol)” value in the data set with E. coli DH1 [1] is 596 (110) mg/L. For the same molecule, in [9], the Km was 0.8 (0.2) mM, the kcat is 0.07 (0.01) sec^−1 and the kcat/Km was 0.08 (0.02) mM^−1 sec^−1. In addition, the Growth rate in the data set with E. coli DH1 [2] (setting [14]) was 0.30 (0.02) hr^−1.

B7: Saccharomyces cerevisiae diphosphomevalonate decarboxylase (PMDsc, SEQ ID NO: 1) variant R74G (Saccharomyces cerevisiae S288C; R74G) (protein)
chain: B1 chain with R74G
Regarding B7, the “48 hr Titer (isopentenol)” value with E. coli DH1 [1] is 975 (96) mg/L and 975 mg/L. In addition, the Growth rate in the data set with E. coli DH1 [2] (setting [14]) is listed as 0.81 (0.03) hr^−1. For the same molecule, the Growth rate in the data set on E. coli DH1 [2] (Table 3) amounted to 0.81 h⁻¹. In addition, in [3], the Km was 3.4 (1.0) mM, the kcat is given as 0.14 (0.02) sec^−1 and the kcat/Km was 0.04 (0.01) mM^−1 sec^−1.

B8: Saccharomyces cerevisiae diphosphomevalonate decarboxylase (PMDsc, SEQ ID NO: 1) variant K22Y (Saccharomyces cerevisiae S288C; K22Y) (protein)
chain: B1 chain with K22Y
notes: as for B2
Take B8: in data set [10], the Km is recorded as 1.3 (0.3) mM, the kcat was 0.09 (0.01) sec^−1 and the kcat/Km was 0.12 (0.03) mM^−1 sec^−1.

B9: Saccharomyces cerevisiae diphosphomevalonate decarboxylase (PMDsc, SEQ ID NO: 1) variant M212Q (Saccharomyces cerevisiae S288C; M212Q) (protein)
chain: B1 chain with M212Q
notes: as for B2
B9: the “48 hr Titer (isopentenol)” value with E. coli DH1 [1] is listed as 601 (76) mg/L. Besides, in the data set on E. coli DH1 [1] (setting [15]), the “isopentenol titer” value is “significantly increase isopentenol titer”. In addition, in the data set with E. coli DH1 [2] (setting [14]), the Growth rate was 0.09 (0.01) hr^−1. For the same molecule, in data set [11], the Km is recorded as 0.7 (0.2) mM, the kcat is reported as 0.35 (0.02) sec^−1 and the kcat/Km is listed as 0.5 (0.1) mM^−1 sec^−1.

B10: S208E: inactive PMDsc mutant, negative control (protein)
chain: B1 chain with S208E
For the molecule B10, the “growth under fosmidomycin selection pressure” value in the data set with E. coli DH1 [2] was “none of three IPK-expressing DH1 strains (SP4, SP5 and SP6) could grow”. Further, in data set [6] (Kang et al., 2016), the “activity toward MVAP” value was “inactive toward MVAP”. Further, the “activity of WT” value in data set [6] was “not detectible”.

B11: K22M: PMDsc mutant K22M with decreased activity, previous study (protein)
chain: B1 chain with K22M
For the molecule B11, the Growth rate in the data set with E. coli DH1 [2] (setting [13]) is recorded as 0.83±0.01 hr^1. For the same molecule, the “growth under fosmidomycin selection pressure” value in the data set on E. coli DH1 [2] was “decreased growth rates relative to wild type”. Moreover, the “activity of WT” value in data set [6] is 25%.

B12: Saccharomyces cerevisiae diphosphomevalonate decarboxylase (PMDsc, SEQ ID NO: 1) variant R147K (Saccharomyces cerevisiae S288C; R147K) (protein)
chain: B1 chain with R147K
notes: as for B2
Take B12: the “48 hr Titer (isopentenol)” value in the data set on E. coli DH1 [1] is 793 (22) mg/L. Also, the “isopentenol titer” value with E. coli DH1 [1] (setting [15]) is “increased isopentenol production titers”. Further, in data set [12], the Km is 0.5 (0.1) mM, the kcat is reported as 0.149 (0.006) sec^−1 and the kcat/Km is listed as 0.32 (.09) mM^−1 sec^−1. Moreover, the Growth rate with E. coli DH1 [2] (setting [14]) is on record as 0.56 (0.02) hr^−1.
